Positions count from the first letter of the chain named. Numbers in names are those of the source.
How the values were obtained:
[1] = tested on: C=C(OP(=O)(O)O)C(=O)O; test: purified protein, by the assay type; details: other: substrate saturation; Bacterial EPSPS / CP4
Text: There are several practical considerations for accurately estimating (kcat/KM)*KI with the rapid method. […] If inhibition is too little, v0-vi will be small, and the error in the multiplier vi×v0/(v0-vi) will be large. […] High substrate concentration obscures sensitivity to the inhibitor and reduces stringency for capturing improvements in KM.

[2] = substrate: C=C(OP(=O)(O)O)C(=O)O; test: Substrate saturation kinetic analysis with glyphosate, Zm-T103A; type: biochemical, Zea mays; details: other: substrate saturation
[3] = substrate: C=C(OP(=O)(O)O)C(=O)O; test: Substrate saturation kinetic analysis with glyphosate, Zm-T103I; type: biochemical, Zea mays; details: other: substrate saturation
[4] = substrate: C=C(OP(=O)(O)O)C(=O)O; test: Substrate saturation kinetic analysis with glyphosate, Zm-A189T; type: biochemical, Zea mays; details: other: substrate saturation
[5] = substrate: C=C(OP(=O)(O)O)C(=O)O; test: Substrate saturation kinetic analysis with glyphosate, Zm-P107S; type: biochemical, Zea mays; details: other: substrate saturation
[6] = substrate: C=C(OP(=O)(O)O)C(=O)O; test: EPSPS substrate saturation kinetics, sunflower H6; type: biochemical; details: other: PEP varied; pH 7.0
Method: EPSPS activity was determined by quantifying the phosphate generated from the EPSPS reaction. Release of inorganic phosphate was coupled to reaction with 2-amino-6-mercapto-7-methylpurine ribonucleoside, catalyzed by purine-nucleoside phosphorylase (M R Webb, Proc. Natl. Acad. Sci. 89:4884-4887, 1992). The absorbance change that occurs was monitored at 360 nm, where the extinction is 11,200 M^−1 cm^−1, with a Spectramax plate reader (Molecular Devices). To determine kinetic parameters, the varied substrate was present at seven concentrations (the eighth being the blank, containing no substrate) ranging from 4 to 400 uM and the unvaried substrate present at saturation. […] Reactions were monitored with a Spectramax plate reader. […] KI was then calculated from the following form of the Michaelis-Menten equation for competitive inhibition: KI=KM[I]/(KM app−KM) KM approximates the dissociation constant of the enzyme-substrate complex while kcat is the rate of conversion of substrate to product when the substrate concentration is saturating. kcat/KM is a widely accepted parameter for catalytic efficiency when substrate concentration is low (˜KM). […] The parameter kcat/KM×KI is used to quantify both catalytic efficiency and insensitivity and thus the overall fitness of the enzyme.
Native EPSPS amino acid sequences of rice (Oryza sativa) (SEQ ID NO:7), sorghum (Sorghum halepense) (SEQ ID NO:8), and sunflower (Helianthus annus) (SEQ ID NO:9) including the chloroplast transit peptide sequences were assembled and analyzed for mapping the corresponding amino acid mutations from the maize 868-H6. […]
ChloroP Prediction Server (Emanuelsson, O. et al. 1999. Protein Sci. 8(5):978-84) was used to approximate the amino terminus of the mature EPSPS proteins. […] The synthetic genes were cloned into a plasmid vector and expressed, purified and analyzed as described in Example 1.

[7] = substrate: C=C(OP(=O)(O)O)C(=O)O; test: Substrate saturation analysis with glyphosate (Example 8), Zm-H6; type: biochemical, Zea mays; details: other: substrate saturation, pH 7.0
Text: Generally, (kcat/KM)*KI is obtained by performing substrate saturation analysis in the absence and presence of inhibitor. However, that analysis takes longer. […] To validate the method, (kcat/KM)*KI was quantified using both methods—traditional (saturation) and the instant method (rapid), for variants of maize 5-enolpyruvylshikimate-3-phosphate synthase (EPSPS) and its competitive inhibitor, glyphosate.
The amino acid sequence of mature Zea mays EPSPS was obtained from GenBank entry CAA44974.1 (SEQ ID NO:2). A nucleotide sequence was created to add an N-terminal methionine and to optimize codon usage for expression in E. coli. The synthesized gene was cloned into an expression vector that provides a T7 promoter driving expression of the protein and a 10× N-terminal histidine tag. Variants selected for this study include native maize EPSPS and variants generated by a gene shuffling cascade described herein. […] Protein concentration was determined by absorbance at 280 nm using an extinction coefficient of 0.676 OD/mg/m L. The proteins were normalized to 0.5 mg/mL for assay.
EPSPS activity was determined by quantifying the phosphate generated by the reaction. […] The absorbance change that occurs was monitored continuously at 360 nm, where the extinction is 11,200 M-1 cm-1, with a Spectramax plate reader (Molecular Devices). […]

[8] = substrate: C=C(OP(=O)(O)O)C(=O)O; test: Substrate saturation kinetic analysis with glyphosate, H6-A36G; type: biochemical, Zea mays; details: other: substrate saturation
[9] = substrate: C=C(OP(=O)(O)O)C(=O)O; test: Substrate saturation kinetic analysis with glyphosate, H6-A76V; type: biochemical, Zea mays; details: other: substrate saturation
[10] = substrate: C=C(OP(=O)(O)O)C(=O)O; test: Substrate saturation kinetic analysis with glyphosate, H6-D196V; type: biochemical, Zea mays; details: other: substrate saturation
[11] = substrate: C=C(OP(=O)(O)O)C(=O)O; test: Substrate saturation kinetic analysis with glyphosate, H6-R61Y; type: biochemical, Zea mays; details: other: substrate saturation
[12] = substrate: C=C(OP(=O)(O)O)C(=O)O; test: Substrate saturation kinetic analysis with glyphosate, H6-H54E; type: biochemical, Zea mays; details: other: substrate saturation
[13] = substrate: C=C(OP(=O)(O)O)C(=O)O; test: Substrate saturation kinetic analysis with glyphosate, H6-V87T; type: biochemical, Zea mays; details: other: substrate saturation
[14] = substrate: C=C(OP(=O)(O)O)C(=O)O; test: Substrate saturation kinetic analysis with glyphosate, H6-A69V; type: biochemical, Zea mays; details: other: substrate saturation
[15] = substrate: C=C(OP(=O)(O)O)C(=O)O; test: Substrate saturation kinetic analysis with glyphosate, H6-K246G; type: biochemical, Zea mays; details: other: substrate saturation

“Bacterial EPSPS (CP4) (Agrobacterium sp. CP4)” gave a Km [1] of 15.8 µM and a kcat [1] of 20.32 s⁻¹.

B1: Zea mays EPSPS variant Zm-T103A (Zea mays; T102A) (protein)
chain: MAGAEEIVLQPIKEISGTVKLPGSKSLSNRILLLAALSEGTTVVDNLLNSEDVHYMLGALRTLGLSVEADKAAKRAVVVGCGGKFPVEDAKEEVQLFLGNAGAAMRPLTAAVTAAGGNATYVLDGVPRMRERPIGDLVVGLKQLGADVDCFLGTDCPPVRVNGIGGLPGGKVKLSGSISSQYLSALLMAAPLALGDVEIEIIDKLISIPYVEMTLRLMERFGVKAEHSDSWDRFYIKGGQKYKSPKNAYVEGDASSASYFLAGAAITGGTVTVEGCGTTSLQGDVKFAEVLEMMGAKVTWTETSVTVTGPPREPFGRKHLKAIDVNMNKMPDVAMTLAVVALFADGPTAIRDVASWRVKETERMVAIRTELTKLGASVEEGPDYCIITPPEKLNVTAIDTYDDHRMAMAFSLAACAEVPVTIRDPGCTRKTFPDYFDVLSTFVKN
notes: native maize plus T103A; E. coli BL21(DE3), Ni-NTA purified
B1 was tested, and the Km [2] was 292 µM and the kcat [2] was 7.52 s⁻¹.

B2: Zea mays EPSPS variant Zm-T103I (Zea mays; T102I) (protein)
chain: B1 chain with A103I
notes: native maize plus T103I; E. coli BL21(DE3), Ni-NTA purified
Work on B2 yielded a Km [3] of 171 µM and a kcat [3] of 5.33 s⁻¹.

B3: Zea mays EPSPS variant Zm-A189T (Zea mays; A188T) (protein)
chain: B1 chain with A103T, A189T
B3 gave a Km [4] of 307 µM and a kcat [4] of 4.3 s⁻¹.

B4: Zea mays EPSPS variant Zm-P107S (Zea mays; P106S) (protein)
chain: B1 chain with A103T, P107S
notes: native maize plus P107S; E. coli BL21(DE3), Ni-NTA purified
For B4, the Km [5] was 14.8 µM and the kcat [5] was 29.97 s⁻¹.

B5: Helianthus annuus EPSPS with 868-H6 mutations, SEQ ID NO:10 (Helianthus annuus; … (protein)
chain: ATTRKWSTAPEEIVLKPIKEISGTVNLPGSKSLSNRILLLAALAEGTTVVDNLLNSDDVHYMLGALRALGLNVEENGQIKRATVEGCGGRFPVGKEAKDEIQLFCGNAATAMRPLTAAVTAAGGNSSYILDGVPRMRERPIGDLVTGLKQLGADVDCFLGTNCPPVRVAANGGLPGGKVKLSGSISSQYLTALLMAAPLALGDVEIEIIDKLISLPYVEMTLKLMERFGVSVEHSDSWDKFYVRGGQKYKSPGNAYVEGDASSASYFLAGAAITGGTVTVEGCGTASLQGDVKFAEVLGQMGAEVTWTSNSVTVRGPPRNASGRGHLRPVDVNMNKMPDVAMTLAVVALYADGPTAIRDVASWRVKESERMIAICTELRKLGATVEEGPDYCVITPPGKLNVTAIDTYGDHRMAMAFSLAACGDVPVTIKDPGCTRKTFPDYFERLEQFTKH
Work on B5 yielded a Km [6] of 37.2 µM, a kcat [6] of 3.52 s⁻¹ and a kcat/Km [6] of 100000 M⁻¹ s⁻¹.

B6: Zea mays EPSPS variant Zm-H6 (868-H6) (Zea mays; A1R/A3W/A415G/A71Q/D401G/E301S/E390G/G101A/I207L/K83R/L97C/T278A/T360S/T440Q/V437R) (protein)
chain: MRGWEEIVLQPIKEISGTVKLPGSKSLSNRILLLAALSEGTTVVDNLLNSEDVHYMLGALRTLGLSVEADKQAKRAVVVGCGGRFPVEDAKEEVQLFCGNAATAMRPLTAAVTAAGGNATYVLDGVPRMRERPIGDLVVGLKQLGADVDCFLGTDCPPVRVNGIGGLPGGKVKLSGSISSQYLSALLMAAPLALGDVEIEIIDKLISLPYVEMTLRLMERFGVKAEHSDSWDRFYIKGGQKYKSPKNAYVEGDASSASYFLAGAAITGGTVTVEGCGTASLQGDVKFAEVLEMMGAKVTWTSTSVTVTGPPREPFGRKHLKAIDVNMNKMPDVAMTLAVVALFADGPTAIRDVASWRVKESERMVAIRTELTKLGASVEEGPDYCIITPPGKLNVTAIDTYGDHRMAMAFSLAACGEVPVTIRDPGCTRKTFPDYFDRLSQFVKN
For B6, the Km [7] was 20.6 µM and the kcat [7] was 3.3 s⁻¹.

B7: Zea mays EPSPS variant Zm-H6 (868-H6) with A36G (H6-A36G) (Zea mays; A1R/A35G/A3W/A415G/A71Q/D401G/E301S/E390G/G101A/I207L/K83R/L97C/T278A/T360S/T440Q/V437R) (protein)
chain: B6 chain with A36G
B7 was tested, and the Km [8] was 30.8 µM and the kcat [8] was 4.1 s⁻¹.

B8: Zea mays EPSPS variant Zm-H6 (868-H6) with A76V (H6-A76V) (Zea mays; A1R/A3W/A415G/A71Q/A75V/D401G/E301S/E390G/G101A/I207L/K83R/L97C/T278A/T360S/T440Q/V437R) (protein)
chain: B6 chain with A76V
B8 was tested, and the Km [9] was 45.2 µM and the kcat [9] was 3.48 s⁻¹.

B9: Zea mays EPSPS variant Zm-H6 (868-H6) with D196V (H6-D196V) (Zea mays; A1R/A3W/A415G/A71Q/D195V/D401G/E301S/E390G/G101A/I207L/K83R/L97C/T278A/T360S/T440Q/V437R) (protein)
chain: B6 chain with D196V
notes: shuffled variant 868-H6 plus D196V; E. coli BL21(DE3), Ni-NTA purified
In the case of B9, the Km [10] is reported as 61.8 µM and the kcat [10] is reported as 2.73 s⁻¹.

B10: Zea mays EPSPS variant Zm-H6 (868-H6) with R61Y (H6-R61Y) (Zea mays; A1R/A3W/A415G/A71Q/D401G/E301S/E390G/G101A/I207L/K83R/L97C/R60Y/T278A/T360S/T440Q/V437R) (protein)
chain: B6 chain with R61Y
notes: 868-H6 plus R61Y; E. coli BL21(DE3), Ni-NTA purified
B10 showed a Km [11] of 23.6 µM and a kcat [11] of 2.08 s⁻¹.

B11: Zea mays EPSPS variant Zm-H6 (868-H6) with H54E (H6-H54E) (Zea mays; A1R/A3W/A415G/A71Q/D401G/E301S/E390G/G101A/H53E/I207L/K83R/L97C/T278A/T360S/T440Q/V437R) (protein)
chain: B6 chain with H54E
notes: 868-H6 plus H54E; E. coli BL21(DE3), Ni-NTA purified
B11 was tested, and the Km [12] was 27.9 µM and the kcat [12] was 4.13 s⁻¹.

B12: Zea mays EPSPS variant Zm-H6 (868-H6) with V87T (H6-V87T) (Zea mays; A1R/A3W/A415G/A71Q/D401G/E301S/E390G/G101A/I207L/K83R/L97C/T278A/T360S/T440Q/V437R/V86T) (protein)
chain: B6 chain with V87T
notes: 868-H6 plus V87T; E. coli BL21(DE3), Ni-NTA purified
B12 gave a Km [13] of 27.5 µM and a kcat [13] of 4.32 s⁻¹.

B13: Zea mays EPSPS variant Zm-H6 (868-H6) with A69V (H6-A69V) (Zea mays; A1R/A3W/A415G/A68V/A71Q/D401G/E301S/E390G/G101A/I207L/K83R/L97C/T278A/T360S/T440Q/V437R) (protein)
chain: B6 chain with A69V
With B13 the Km [14] was 21.1 µM and the kcat [14] was 2.68 s⁻¹.

B14: Zea mays EPSPS variant Zm-H6 (868-H6) with K246G (H6-K246G) (Zea mays; A1R/A3W/A415G/A71Q/D401G/E301S/E390G/G101A/I207L/K245G/K83R/L97C/T278A/T360S/T440Q/V437R) (protein)
chain: B6 chain with K246G
notes: 868-H6 plus K246G; E. coli BL21(DE3), Ni-NTA purified
With B14 the Km [15] was 24.0 µM and the kcat [15] was 3.5 s⁻¹.
